According to US20180355053A1 (Stanford University, published 2018):

Experiments:
[1] = biological target: T1, human CD47 tagged with mouse Fc (human, UniProt Q08722 19-139, limits assumed); test: ELISA on immobilized recombinant CD47
T1 construct: also called recombinant CD47 antigen
Description: FIG. 7: SIRPα-rituximab bispecific reagents bind to CD47 with reduced affinity relative to anti-CD47 and other bispecific antibody formats. Binding of the indicated antibodies to the recombinant CD47 antigen was measured by ELISA over a range of concentrations. Immobilized human CD47 tagged with mouse Fc was used to capture the indicated antibodies prior to detection with HRP-conjugated antibody directed against the human kappa light chain. Data are representative of three experiments performed in triplicate.

human CD47 = biological target: T2, human CD47 (human, UniProt Q08722 19-323); test: flow cytometry on CD20-CD47+ YB2/0 cells
T2 construct: whole, on cells
From the text: FIG. 5A-5B: SIRPα-rituximab bispecific reagents bind to CD47 on the cell surface with reduced affinity relative to anti-CD47. The indicated antibodies were used to stain rat YB2/0 cells engineered to express human CD47, but not human CD20 (CD20−CD47+) prior to detection with fluorescently tagged anti-human secondary antibody by flow cytometry. 2B8=anti-CD20, B6H12=anti-CD47.

human CD20 [2] = biological target: T3, human CD20 (human, UniProt P11836 1-297); test: flow cytometry on CD20+CD47- YB2/0 cells
T3 construct: whole, on cells; also called MS4A1
T3 sequence (looked up): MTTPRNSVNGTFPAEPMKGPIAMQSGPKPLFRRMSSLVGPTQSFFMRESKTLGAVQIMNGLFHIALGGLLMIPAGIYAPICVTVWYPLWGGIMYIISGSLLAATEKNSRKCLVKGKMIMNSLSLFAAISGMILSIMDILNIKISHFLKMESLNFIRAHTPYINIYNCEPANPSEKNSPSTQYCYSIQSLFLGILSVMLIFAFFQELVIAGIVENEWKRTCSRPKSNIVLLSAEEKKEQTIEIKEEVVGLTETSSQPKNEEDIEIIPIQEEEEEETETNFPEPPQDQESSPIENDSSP
From the text: FIG. 3A-3B: SIRPα-rituximab bispecific reagents bind to CD20 on the cell surface. The indicated antibodies were used to stain rat YB2/0 cells engineered to express human CD20, but not human CD47 (CD20+CD47−) prior to detection with anti-human secondary antibody by flow cytometry. 2B8=anti-CD20, B6H12=anti-CD47.

human CD20 [3] = biological target: T3, human CD20; test: flow cytometry competition with 10 µg/ml DyLight 488 anti-CD20 on CD20+CD47- YB2/0 cells
From the text: FIG. 4: SIRPα-rituximab bispecific reagents bind to CD20 with similar affinity as parental antibody.

Measured: binding result

B1: CD20-2GL-SIRPα (bispecific antibody, human IgG1, kappa)
heavy: not shown
light: QIVLSQSPAILSASPGEKVTMTCRASSSVSYIHWFQQKPGSSPKPWIYATSNLASGVPVRFSGSGSGTSYSLTISRVEAEDAATYYCQQWTSNPPTFGGGTKLEIKRTVAAPSVFIFPPSDEQLKSGTASVVCLLNNFYPREAKVQWKVDNALQSGNSQESVTEQDSKDSTYSLSSTLTLSKADYEKHKVYACEVTHQGLSSPVTKSFNRGEC
notes: Wild type human SIRPα N-terminal Ig fold fused to the C terminus of the rituximab heavy chain through (GGGGS)2; also called CD20-2GL-SIRPα HC; SIRPabody
binds: [1] | human CD47 | human CD20 [2]

B2: SIRPα-CD20 (bispecific antibody, human IgG1, kappa)
heavy: not shown
light: QIVLSQSPAILSASPGEKVTMTCRASSSVSYIHWFQQKPGSSPKPWIYATSNLASGVPVRFSGSGSGTSYSLTISRVEAEDAATYYCQQWTSNPPTFGGGTKLEIKRTVAAPSVFIFPPSDEQLKSGTASVVCLLNNFYPREAKVQWKVDNALQSGNSQESVTEQDSKDSTYSLSSTLTLSKADYEKHKVYACEVTHQGLSSPVTKSFNRGEC
notes: also called SIRPabody; SIRPα-rituximab bispecific reagent
binds: [1] | human CD47 | human CD20 [3]

B3: CD20-4GL-SIRPα (bispecific antibody, human IgG1, kappa)
heavy: not shown
light: QIVLSQSPAILSASPGEKVTMTCRASSSVSYIHWFQQKPGSSPKPWIYATSNLASGVPVRFSGSGSGTSYSLTISRVEAEDAATYYCQQWTSNPPTFGGGTKLEIKRTVAAPSVFIFPPSDEQLKSGTASVVCLLNNFYPREAKVQWKVDNALQSGNSQESVTEQDSKDSTYSLSSTLTLSKADYEKHKVYACEVTHQGLSSPVTKSFNRGEC
notes: Wild type human SIRPα N-terminal Ig fold fused to the C terminus of the rituximab heavy chain through (GGGGS)4; also called SIRPabody; SIRPα-rituximab bispecific reagent
binds: [1] | human CD47 | human CD20 [2]
